Positions count from the first letter of the chain named.
B1: 72T 73W 74E (protein, listed as Rattus norvegicus)
chain: AFDGTWKVDRNENYEKFMEKMGINVVKRKLGAHDNLKLTITQEGNKFTVKESSNFRNIDVVFELGVDFAYSTWEGTELTGTWTMEGNKLVGKFKRVDNGKELIAVREISGNELIQTYTYEGVEAKRIFKKE
modifications: PEPTIDE (1)...(131) wild-type rat intestinal fatty acid binding protein
B2: 72T 73W 74L (protein, listed as Rattus norvegicus)
chain: B1 chain with E74L
modifications: PEPTIDE (1)...(131) wild-type rat intestinal fatty acid binding protein
B3: 72S 73L 74A (protein, listed as Rattus norvegicus)
chain: B1 chain with T72S, W73L, E74A
modifications: PEPTIDE (1)...(131) wild-type rat intestinal fatty acid binding protein
B4: 72T 74V (protein, listed as Rattus norvegicus)
chain: B1 chain with W73A, E74V
modifications: PEPTIDE (1)...(131) wild-type rat intestinal fatty acid binding protein
B5: 72T 74I (protein, listed as Rattus norvegicus)
chain: B1 chain with W73A, E74I
modifications: PEPTIDE (1)...(131) wild-type rat intestinal fatty acid binding protein
B6: 72T 73V 74V (protein, listed as Rattus norvegicus)
chain: B1 chain with W73V, E74V
modifications: PEPTIDE (1)...(131) wild-type rat intestinal fatty acid binding protein
B7: 72T 73V 74S (protein, listed as Rattus norvegicus)
chain: B1 chain with W73V, E74S
modifications: PEPTIDE (1)...(131) wild-type rat intestinal fatty acid binding protein
B8: 72W 73T 74G (protein, listed as Rattus norvegicus)
chain: B1 chain with T72W, W73T, E74G
modifications: PEPTIDE (1)...(131) wild-type rat intestinal fatty acid binding protein
B9: 21Y 78I 102I 72A (protein, listed as Rattus norvegicus)
chain: B1 chain with M21Y, T72A, W73A, E74D, L78I, L102I
modifications: PEPTIDE (1)...(131) wild-type rat intestinal fatty acid binding protein
B10: 21F 78V 102V 72A (protein, listed as Rattus norvegicus)
chain: B1 chain with M21F, T72A, W73A, E74D, L78V, L102V
modifications: PEPTIDE (1)...(131) wild-type rat intestinal fatty acid binding protein
B11: 72G 73W (protein, listed as Rattus norvegicus)
chain: B1 chain with T72G, E74D
modifications: PEPTIDE (1)...(131) wild-type rat intestinal fatty acid binding protein
B12: 72S 73V 74V (protein, listed as Rattus norvegicus)
chain: B1 chain with T72S, W73V, E74V
modifications: PEPTIDE (1)...(131) wild-type rat intestinal fatty acid binding protein
B13: 72S 73M 74A (protein, listed as Rattus norvegicus)
chain: B1 chain with T72S, W73M, E74A
modifications: PEPTIDE (1)...(131) wild-type rat intestinal fatty acid binding protein
B14: 72T 73V 74L (protein, listed as Rattus norvegicus)
chain: B1 chain with W73V, E74L
modifications: PEPTIDE (1)...(131) wild-type rat intestinal fatty acid binding protein
B15: 72T 73Q 74A (protein, listed as Rattus norvegicus)
chain: B1 chain with W73Q, E74A
modifications: PEPTIDE (1)...(131) wild-type rat intestinal fatty acid binding protein

Test: Probe fluorescence ratio response to linolenic acid relative to ADIFAB2
Type: binding
Settings: response relative to ADIFAB2
Procedure, shortened: (§1)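 Fluorescently labeled rat intestinal FABP variants were read at two emission wavelengths, near the unbound maximum (about 420 to 480 nm) and the FFA-bound maximum (about 495 to 580 nm). R = Fλ1/Fλ2 after subtracting probe-free intensity; ΔR = R+agent − R0, normalized to ADIFAB2 (rI-FABP-L72A).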

Row | Molecule | DR/DR LNA
1 | B1 | 3.818
2 | B2 | 3.009
3 | B3 | 3.322
4 | B4 | 3.680
5 | B5 | 3.169
6 | B6 | 3.618
7 | B7 | 2.579
8 | B8 | 3.394
9 | B9 | 2.454
10 | B10 | 3.775
11 | B11 | 3.637
12 | B12 | 3.088
13 | B13 | 2.567
14 | B14 | 3.508
15 | B15 | 2.850

Test: Probe fluorescence ratio response to oleic acid relative to ADIFAB2
Type: binding
Settings: response relative to ADIFAB2
Procedure, shortened: as §1

Row | Molecule | DR/DR OA
16 | B1 | 2.200
17 | B2 | 2.340
18 | B3 | 3.495
19 | B4 | 2.957
20 | B5 | 2.660
21 | B6 | 3.166
22 | B7 | 2.670
23 | B8 | 2.514
24 | B9 | 3.424
25 | B10 | 4.223
26 | B11 | 1.106
27 | B12 | 2.556
28 | B13 | 2.443
29 | B14 | 2.832
30 | B15 | 3.136

Test: Probe fluorescence ratio response to linoleic acid relative to ADIFAB2
Type: binding
Settings: response relative to ADIFAB2
Procedure, shortened: as §1

Row | Molecule | DR/DR LA
31 | B1 | 3.254
32 | B2 | 2.819
33 | B3 | 3.455
34 | B4 | 3.630
35 | B5 | 3.156
36 | B6 | 3.502
37 | B7 | 2.611
38 | B8 | 3.099
39 | B9 | 2.879
40 | B10 | 4.204
41 | B11 | 2.698
42 | B12 | 3.085
43 | B13 | 2.470
44 | B14 | 3.165
45 | B15 | 3.163

Test: Probe fluorescence ratio response to palmitic acid relative to ADIFAB2
Type: binding
Settings: response relative to ADIFAB2
Procedure, shortened: as §1

Row | Molecule | DR/DR PA
46 | B1 | 3.842
47 | B2 | 2.727
48 | B3 | 3.293
49 | B4 | 3.149
50 | B5 | 2.476
51 | B6 | 2.987
52 | B7 | 2.629
53 | B8 | 2.934
54 | B9 | 1.870
55 | B10 | 2.756
56 | B11 | 2.968
57 | B12 | 2.091
58 | B13 | 2.524
59 | B14 | 2.674
60 | B15 | 3.473

Test: Probe fluorescence ratio response to stearic acid relative to ADIFAB2
Type: binding
Settings: response relative to ADIFAB2
Text: (§2) In an alternate preferred embodiment, the protein is rI-FABP that has Ala substituted for Leu at position 72 (rI-FABP-L72A) with the resulting probe named ADIFAB2. […] Other probes useful in embodiments of the invention are shown in Tables 1-6 and are also described in U.S. application Ser. No. 11/085,792, filed Mar. 21, 2005 which is incorporated herein by reference. The indicated substitutions are with reference to the ADIFAB protein of SEQ ID NO: 2.
(§3) ADIFAB2 also has an altered spectral response, making it especially useful for measurements of FFAu in blood samples (Apple et al, Clinical Proteomics, (2004) 1:41-44, U.S. patent application Ser. No. 10/670,958). The wavelengths at the maximum intensities emitted by these fluorescently-labeled I-FABP's in the absence of FFA is about 420 to 480 nm. The emission wavelengths at the maximum intensities emitted by these fluorescently-labeled I-FABP's with FFA bound are between about 495 to 580 nm. Experiments typically involve measuring the fluorescence response within both emission maxima or at wavelengths for which the effect of interfering molecules such as hemoglobin can be eliminated as described in U.S. application Ser. No. 10/670958 and PCT/US2004/030521 and the calculation of the ratio ‘R’ of the two fluorescence intensities. The baseline value for this ratio, measured in the absence of analyte, is designated R0.
(§4) The intensity ratio (“R” value) is determined as follows. The ratio is calculated using the following formula: R=Fλ1/Fλ2 wherein, Fλ1 is the measured fluorescence intensities (intensity of sample with probe present minus intensity of sample without probe present) at wavelength 1 and Fλ2 is the measured fluorescence intensities (intensity of sample with probe present minus intensity of sample without probe present) at wavelength 2. Then, for a given probe, ΔR, the difference in R value between the measurement in the presence of the test compound (agent) and in the absence of the test compound (agent), is calculated as follows: ΔR=R+agent−R0 In some embodiments, the ΔR value may then be compared to some reference, for example, an agent with a known affinity for a given probe, by ΔR/ΔRreference. Measurements of fluorescence intensities are obtained using standard techniques.

Row | Molecule | DR/DR SA
61 | B1 | 0.877
62 | B2 | 1.217
63 | B3 | 2.574
64 | B4 | 1.781
65 | B5 | 1.806
66 | B6 | 1.918
67 | B7 | 2.195
68 | B8 | 1.040
69 | B9 | 2.774
70 | B10 | 3.120
71 | B11 | 0.294
72 | B12 | 1.058
73 | B13 | 1.776
74 | B14 | 1.411
75 | B15 | 2.318

Test: Probe fluorescence ratio response to arachidonic acid relative to ADIFAB2
Type: binding
Settings: arachidonic acid; response relative to ADIFAB2
Procedure, shortened: as §1

Row | Molecule | DR/DR AA
76 | B1 | 2.442
77 | B2 | 2.721
78 | B3 | 3.336
79 | B4 | 2.680
80 | B5 | 2.502
81 | B6 | 3.237
82 | B7 | 2.540
83 | B8 | 2.808
84 | B9 | 3.536
85 | B10 | 4.511
86 | B11 | 2.260
87 | B12 | 2.712
88 | B13 | 2.759
89 | B14 | 2.774
90 | B15 | 2.392

Test: Probe fluorescence ratio response to palmitoleic acid relative to ADIFAB2
Type: binding
Settings: response relative to ADIFAB2
Text: as §2, §3, §4

Row | Molecule | DR/DR POA
91 | B1 | 5.353
92 | B2 | 3.574
93 | B3 | 3.923
94 | B4 | 4.074
95 | B5 | 3.410
96 | B6 | 4.015
97 | B7 | 2.909
98 | B8 | 4.105
99 | B9 | 2.089
100 | B10 | 3.365
101 | B11 | 4.082
102 | B12 | 3.322
103 | B13 | 2.854
104 | B14 | 3.642
105 | B15 | 3.632

From patent publication US20060257938A1, “Method of screening for drugs that block ligand binding to a lipid binding protein” (priority 2005, published 2006)
